Results published in the supplement of paper PMC11780869.

Tested on: Bacillus subtilis
Assay: cleaved RNA product abundance (RNA/gDNA barcode ratio) relative to median wild-type variant (ratio to wild type); higher = more accumulation of the downstream cleavage product
Details: experiment (reporter, strain, medium): exp 8a: truncated aprE reporter, strain BJT201 with 2% xylose (RNase J1 expressed); cleavage site: glnRA (positions -5 to +31 mutated)
In short: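 Reporter mRNAs based on truncated aprE or tetM carried barcoded, mutagenized RNase Y cleavage-site windows built from oligos with a 9% error rate and were integrated into the B. subtilis chromosome. Cultures grew in LB at 37°C from OD600 0.0003 to 0.3. Cleaved RNA was gel-selected, reverse transcribed and barcode-sequenced together with genomic DNA barcodes, and UMIs were collapsed. Cleaved product abundance is the per-construct ratio of RNA to gDNA barcodes, scaled to the median of constructs carrying the unmutated site.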

Sequence	cleaved RNA product abundance
CGACATGTCCCGCTTCTTTCATTATTCTGTTAGCAACTGTTTAGCTATATACATTTACCTTTTAAGAGGAGGAAT	0.759
CGACATGTCCCGCTTCTTTCATTATTCTGTTAGCAACTGTTTTGCTATAAACATTTACCTTTTAAGAGGAGGAAT	0.834
CGACATGTCCCGCTTCTTTCATTATTCTGTTAGCAACTGTTTTGCTATATACAGTTACCTTTTAAGAGGAGGAAT	0.717
CGACATGTCCCGCTTCTTTCATTATTCTGTTAGCAACTGTTTTGCTATATACATTTACCTTTTAAGAGGAGGAAT	1.94
CGACATGTCCCGCTTCTTTCATTATTGCGTTAGCAACTGTTTTGCTATATACATTTACCTTTTAAGAGGAGGAAT	1.54
CGACATGTCCCGCTTCTTTCATTATTTCGTTAGCAACTGTTTTGCTATATACATTTACCTTTTAAGAGGAGGAAT	1.59
